± gives the uncertainty stated by the source.
B1: Dystrobrevin alpha, residues 235 to 294; numbered along this chain, Q9Y4J8 (parent)
chain: ENVFHPVECSYCHSESMMGFRYRCQQCHNYQLCQDCFWRGHAGGSHSNQHQMKEYTSWKS

Variants of: B1
Assay: abundance fitness (aPCA) (normalised: wild type 0, dead -1); higher = more abundant; growth selection in yeast, the domain comes from the species named
Settings: Homo sapiens

Variant	abundance fitness
ENVFHPVECSYCHSESMMGFRYRCQQCHNYQLCQDCFWRGHAGGSHSNQHQMKTYTSWKS	0.312 ± 0.21
ENVFHPVECSYCHSESMMGFRYRCQQCHNYQLCQDCFWRGHAGGSHSNQHQMKGYTSWKS	-0.29 ± 0.5
ENVFHPVECSYCHSESMMGFRYRCQQCHNYQLCQDCFWRGHAGGSHSNQHQMKEYTSKKS	0.195 ± 0.099
ENVFHPVECSYCHSESMMGFRYRCQQCHNYQLCQDCFWRGHAGGSHSNQHQMKEYTSQKS	-0.127 ± 0.15
ENVFHPVECSYCHSESMMGFRYRCQQCHNYQLCQDCFWRGHAGGSHSNQHQMKEYTSFKS	-0.021 ± 0.083
ENVFHPVECSYCHSESMMGFRYRCQQCHNYQLCQDCFWRGHAGGSHSNQHQMKEYTSHKS	0.105 ± 0.15
ENVFHPVECSYCHSESMMGFRYRCQQCHNYQLCQDCFWRGHAGGSHSNQHQMKEYTSTKS	0.258 ± 0.075
ENVFHPVECSYCHSESMMGFRYRCQQCHNYQLCQDCFWRGHAGGSHSNQHQMKEYTSYKS	0.142 ± 0.26
ENVFHPVECSYCHSESMMGFRYRCQQCHNYQLCQDCFWRGHAGGSHSNQHQMKEYTSMKS	0.251 ± 0.068
ENVFHPVECSYCHSESMMGFRYRCQQCHNYQLCQDCFWRGHAGGSHSNQHQMKEYTSDKS	0.284 ± 0.07
ENVFHPVECSYCHSESMMGFRYRCQQCHNYQLCQDCFWRGHAGGSHSNQHQMKEYTSGKS	0.192 ± 0.044
ENVFHPVECSYCHSESMMGFRYRCQQCHNYQLCQDCFWRGHAGGSHSNQHQMKEYTSLKS	0.019 ± 0.068
ENVFHPVECSYCHSESMMGFRYRCQQCHNYQLCQDCFWRGHAGGSHSNQHQMKEYTSRKS	0.077 ± 0.051
ENVFHPVECSYCHSESMMGFRYRCQQCHNYQLCQDCFWRGHAGGSHSNQHQMKEYTSSKS	0.057 ± 0.06
ENVFHPVECSYCHSESMMGFRYRCQQCHNYQLCQDCFWRGHAGGSHSNQHQMKEYTSCKS	0.003 ± 0.07
ENVFHPVECSYCHSESMMGFRYRCQQCHNYQLCQDCFWRGHAGGSHSNQHQMKEYTSAKS	0.258 ± 0.05
ENVFHPVECSYCHSESMMGFRYRCQQCHNYQLCQDCFWRGHAGGSHSNQHQMKEYTSNKS	0.232 ± 0.12
ENVFHPVECSYCHSESMMGFRYRCQQCHNYQLCQDCFWRGHAGGSHSNQHQMKEYTSVKS	0.224 ± 0.057
ENVFHPVECSYCHSESMMGFRYRCQQCHNYQLCQDCFWRGHAGGSHSNQHQMKEYTSEKS	0.297 ± 0.097
ENVFHPVECSYCHSESMMGFRYRCQQCHNYQLCQDCFWRGHAGGSHSNQHQMKEYFSWKS	-0.642 ± 0.18
ENVFHPVECSYCHSESMMGFRYRCQQCHNYQLCQDCFWRGHAGGSHSNQHQMKEYWSWKS	-0.605 ± 0.093
ENVFHPVECSYCHSESMMGFRYRCQQCHNYQLCQDCFWRGHAGGSHSNQHQMKEYYSWKS	-0.509 ± 0.1

Variant	abundance fitness
ENVFHPVECSYCHSESMMGFRYRCQQCHNYQLCQDCFWRGHAGGSHSNQHQMKEYCSWKS	0.076 ± 0.091
ENVFHPVECSYCHSESMMGFRYRCQQCHNYQLCQDCFWRGHAGGSHSNQHQMKEYGSWKS	0.024 ± 0.057
ENVFHPVECSYCHSESMMGFRYRCQQCHNYQLCQDCFWRGHAGGSHSNQHQMKEYVSWKS	-0.137 ± 0.06
ENVFHPVECSYCHSESMMGFRYRCQQCHNYQLCQDCFWRGHAGGSHSNQHQMKEYMSWKS	-0.151 ± 0.12
ENVFHPVECSYCHSESMMGFRYRCQQCHNYQLCQDCFWRGHAGGSHSNQHQMKEYRSWKS	-0.061 ± 0.044
ENVFHPVECSYCHSESMMGFRYRCQQCHNYQLCQDCFWRGHAGGSHSNQHQMKEYPSWKS	0.126 ± 0.059
ENVFHPVECSYCHSESMMGFRYRCQQCHNYQLCQDCFWRGHAGGSHSNQHQMKEYASWKS	0.017 ± 0.061
ENVFHPVECSYCHSESMMGFRYRCQQCHNYQLCQDCFWRGHAGGSHSNQHQMKEYKSWKS	0.066 ± 0.1
ENVFHPVECSYCHSESMMGFRYRCQQCHNYQLCQDCFWRGHAGGSHSNQHQMKEYSSWKS	0.104 ± 0.057
ENVFHPVECSYCHSESMMGFRYRCQQCHNYQLCQDCFWRGHAGGSHSNQHQMKEYESWKS	0.307 ± 0.12
ENVFHPVECSYCHSESMMGFRYRCQQCHNYQLCQDCFWRGHAGGSHSNQHQMKEYDSWKS	0.188 ± 0.076
ENVFHPVECSYCHSESMMGFRYRCQQCHNYQLCQDCFWRGHAGGSHSNQHQMKEYISWKS	-0.218 ± 0.097
ENVFHPVECSYCHSESMMGFRYRCQQCHNYQLCQDCFWRGHAGGSHSNQHQMKEYHSWKS	-0.025 ± 0.1
ENVFHPVECSYCHSESMMGFRYRCQQCHNYQLCQDCFWRGHAGGSHSNQHQMKEYQSWKS	0.044 ± 0.09
ENVFHPVECSYCHSESMMGFRYRCQQCHNYQLCQDCFWRGHAGGSHSNQHQMKEYNSWKS	-0.045 ± 0.19
ENVFHPVECSYCHSESMMGFRYRCQQCHNYQLCQDCFWRGHAGGSHSNQHQMKEYLSWKS	-0.462 ± 0.064
ENVFHPVECSYCHSESMMGFRYRCQQCHNYQLCQDCFWRGHAGGSHSNQHQMKEETSWKS	0.117 ± 0.1
ENVFHPVECSYCHSESMMGFRYRCQQCHNYQLCQDCFWRGHAGGSHSNQHQMKETTSWKS	0.104 ± 0.095
ENVFHPVECSYCHSESMMGFRYRCQQCHNYQLCQDCFWRGHAGGSHSNQHQMKEDTSWKS	0.243 ± 0.093
ENVFHPVECSYCHSESMMGFRYRCQQCHNYQLCQDCFWRGHAGGSHSNQHQMKECTSWKS	0.209 ± 0.085
ENVFHPVECSYCHSESMMGFRYRCQQCHNYQLCQDCFWRGHAGGSHSNQHQMKEQTSWKS	-0.071 ± 0.086
ENVFHPVECSYCHSESMMGFRYRCQQCHNYQLCQDCFWRGHAGGSHSNQHQMKERTSWKS	-0.11 ± 0.066

Reference: the Human Domainome abundance scans (Beltran et al. 2025)
